“And” between values parts separate entries of the source, which are not always exact repeats. Identical values can stand only once.
Columns and labels:
INS-1 cells = assay: Insulin secretion from INS-1 cells; type: cell-based
Method: Natural GLP-1 stimulates insulin secretion from beta cells in a glucose-dependent manner. […] INS-1 cells were serum-starved and glucose-starved, then treated with different amounts of purified YN-011 in the presence of 0, 5, or 20 mM glucose as indicated.

DIO mice = assay: High-fat diet-induced obese (DIO) mice; type: in vivo
Method: The effects of multiple administrations of YN-011 on glucose tolerance, insulin sensitivity, metabolism, and weight reduction were evaluated in high-fat diet (HFD)-induced obese mice. Male C57BL/6 mice, 5 months old (obtained from commercial sources such as Shanghai Slake Experimental Animals Co., Ltd., under standard housing conditions), were fed with an HFD (60% of total calories from fat, 20% from carbohydrates) for 6 months to establish the diet-induced obesity (DIO) mouse model. The DIO mice (weighing >50 g) were then divided into two groups (5 animals per group), with the experimental group receiving subcutaneous injections of 0.3 mg/kg of YN-011 twice a week (BIW) and the control group receiving phosphate-buffered saline (PBS) injections. The treatment was administered for 4 weeks.

NASH Rhesus monkeys = assay: NASH Rhesus monkeys, liver biopsy histology (NAS and fibrosis scores); type: in vivo; parameters: key to Fibrosis score: 0: No fibrosis observed; 1a: Mild perisinus fibrosis in zone 3; 1b: Moderate sinus fibrosis in zone 3; 1c: Periportal fibrosis; 2: Perisinus and periportal fibrosis; 3: Bridging fibrosis; 4: Cirrhosis; key to NAS Score: NAFLD activity score (NAS) from steatosis, inflammation, ballooning grades; settings: for Fibrosis score / NAS Score / Steatosis score: individual animals
Method: Amount of specimens collected: ≤2 needles, each needle with a specimen length≤1.5 cm, and the total cumulative specimen length≤3 cm.
Approximately 2 cm of the collected tissue was immediately placed in 4% buffered formalin at room temperature and fixed for at least 24 hours. After appropriate modifications, dehydration, embedding, sectioning, HE staining, and Masson staining were performed.
Tissue sections were stained with H&E and Masson stains. Pathological slides were evaluated by a pathologist according to the diagnostic and treatment guidelines for non-alcoholic fatty liver disease (NAFLD) jointly drafted by the American Association for the Study of Liver Diseases (AASLD), the American College of Gastroenterology (ACG), and the American Gastroenterological Association (AGA). The diagnostic criteria can be found in Table 2 and Table 3.
After adequate fixation of the liver biopsy specimens, they were dehydrated, infiltrated with paraffin, embedded, and sectioned (5 μm) directly.
Routine deparaffinization of the sections was performed. The sections were sequentially immersed in 100% ethanol I, 100% ethanol II, 95%, 85%, and 75% ethanol for 3 minutes each. They were then rinsed with tap water for 3 minutes, stained with hematoxylin-eosin (HE) staining solution for 12 minutes, rinsed with tap water for 5 minutes, and stained with eosin Y solution (aqueous) for 3 minutes. Dehydration was carried out rapidly with 95% ethanol, followed by two rounds of dehydration with absolute ethanol for 2-5 minutes each. The sections were then cleared with xylene twice for 10 minutes each. Neutral mounting medium was applied, and microscopic examination was performed.
Routine deparaffinization of the sections was performed. The sections were stained with Weigert's iron hematoxylin for 5-7 minutes, and simultaneously, weak acid working solution was prepared by mixing distilled water and weak acid solution in a ratio of 2:1. The sections were rinsed with weak acid working solution for 1 minute. After rinsing with phosphomolybdic acid solution for 1-2 minutes, the sections were directly placed in aniline blue staining solution for 1-2 minutes, followed by rinsing with the prepared weak acid working solution for 1 minute. Dehydration was carried out rapidly with 95% ethanol, followed by two rounds of dehydration with absolute ethanol for 2-5 minutes each. The sections were then cleared with xylene twice for 10 minutes each. Neutral mounting medium was applied, and microscopic examination was performed.
The sections were observed under a microscope (with a digital imaging system), and pathological diagnosis and photography were performed. Based on the histopathological diagnosis, the HE and Masson results were scored according to the scoring criteria for non-alcoholic fatty liver disease activity score (NAS, Table 8) and liver fibrosis staging (Table 9).
Fifteen Rhesus monkeys were divided into 3 groups, with 5 monkeys in each group. They received subcutaneous injections of 0 (solvent control, placebo control group), 0.050, or 0.150 mg/kg of YN-011 once a week for 13 weeks (QW). The 0.150 mg/kg YN-011 group received adaptive dosing (0.1 mg/kg for the first dose, followed by 0.150 mg/kg for the remaining 12 doses).
To investigate whether YN-011 treatment led to histological improvements in the liver, liver biopsy specimens were collected from all Rhesus monkeys before the first injection and on day 89 after the first injection. Liver slices were stained with HE and Masson stains for histological analysis. The degrees of steatosis, inflammation, hepatocyte ballooning, and fibrosis were scored according to the standards for NAFLD activity and NASH progression.

[1] = Determination of oxidation levels by LC-MS/MS; type: physicochemical
Method: Following the protein oxidation measurement method described in Example 2 or by referring to Bettinger et al., the oxidation levels were determined. It was observed that the GLP-1 fusion protein YN-011 of the present invention was not oxidized at position W31, whereas the oxidation level of […] at the same position exceeded 5%. The oxidation occurred at the location indicated by the rectangular box in the structure of W31.

[2] = 0.3 mg/kg sc BIW, 4 weeks, P<0.001
[3] = 50 μg/kg group, Day 89 post-injection
[4] = 150 μg/kg group, Day 89 post-injection

B1: YN-011: GLP-1 fusion protein of SEQ ID NO: 7: GLP-1 (A8G, G22E, R36G), linker peptide and IgG2/Fc domain (C222S, A330S, P331S) (protein)
chain: HGEGTFTSDVSSYLEEQAAKEFIAWLVKGGGSSGAPPPSGGGGSERKSCVECPPCPAPPVAGPSVFLFPPKPKDTLMISRTPEVTCVVVDVSHEDPEVQFNWYVDGVEVHNAKTKPREEQFNSTFRVVSVLTVVHQDWLNGKEYKCKVSNKGLPSSIEKTISKTKGQPREPQVYTLPPSREEMTKNQVSLTCLVKGFYPSDIAVEWESNGQPENNYKTTPPMLDSDGSFFLYSKLTVDKSRWQQGNVFSCSVMHEALHNHYTQKSLSLSPG
insulin secretion from beta cells (INS-1 cells; absence of glucose): did not stimulate insulin secretion
insulin secretion from beta cells (INS-1 cells; presence of 5 mM or 20 mM glucose): dose-dependently stimulated insulin secretion
UcP1 expression in BAT and epididymal WAT (DIO mice): no effect
Ucp1 expression in inguinal WAT (DIO mice): significantly upregulated
body weight (DIO mice; 0.3 mg/kg sc BIW, 4 weeks): significantly reduced
ectopic lipid accumulation and hepatic triglycerides (DIO mice; 0.3 mg/kg sc BIW, 4 weeks): significantly reduced
weight of other tissues (BAT, inguinal WAT, pancreas, calf muscle) (DIO mice; 0.3 mg/kg sc BIW, 4 weeks): no impact
AST levels (DIO mice; 0.3 mg/kg sc BIW, 4 weeks, Ctrl 145.6±16.8, P<0.05): 72.20±19.29
serum ALT levels (DIO mice; 0.3 mg/kg sc BIW, 4 weeks, Ctrl 153.4±18.7, P<0.01): 34.2±7.7
reduction in non-esterified fatty acids (NEFA) (DIO mice; [2]): 57%
reduction in total cholesterol (TC) (DIO mice; [2]): 30%
reduction in triglycerides (TG) (DIO mice; [2]): 68%
visceral fat, particularly epididymal fat content (DIO mice; 0.3 mg/kg sc BIW, 4 weeks, vs PBS control): significant decrease
blood glucose (DIO mice; after 4 weeks of treatment, glucose fluctuation / IPGTT, P<0.01): significantly reduced
insulin sensitivity (DIO mice; after 4 weeks of treatment, insulin tolerance, P<0.01): improved insulin sensitivity
core body temperature (DIO mice; at room temperature): higher core body temperature
VO2, VCO2 and EE normalized to body weight (DIO mice; during the night): significantly increased
food consumption (DIO mice; multiple administrations vs control): significant decrease
metabolic rate (VO2 and VCO2) and energy expenditure (EE) (DIO mice; not normalized, without statistical significance): increasing trend
Fibrosis score (NASH Rhesus monkeys; 50 μg/kg group, Baseline): 1a (2×) and 1c (2×) and 0-1a
NAS Score (NASH Rhesus monkeys; 50 μg/kg group, Baseline): 3 (2×) and 4 (3×)
Steatosis score (NASH Rhesus monkeys; 50 μg/kg group, Baseline): 1 (5%~33%) (4×) and 2 (34%~66%)
Fibrosis score (NASH Rhesus monkeys; [3]): 1a (2×) and 0~1a (3×)
NAS Score (NASH Rhesus monkeys; [3]): 2 (3×) and 1 (2×)
Steatosis score (NASH Rhesus monkeys; [3]): 0 (<5%) (4×) and 1 (5%~33%)
Fibrosis score (NASH Rhesus monkeys; 150 μg/kg group, Baseline): 1a (2×) and 1b (2×) and 0~1a
NAS Score (NASH Rhesus monkeys; 150 μg/kg group, Baseline): 3 (2×) and 4 (3×)
Steatosis score (NASH Rhesus monkeys; 150 μg/kg group, Baseline): 2 (34%~66%) (4×) and 3 (>66%)
Fibrosis score (NASH Rhesus monkeys; [4]): 1a (2×) and 1b and 0~1a (2×)
NAS Score (NASH Rhesus monkeys; [4]): 1 (3×) and 2 (2×)
Steatosis score (NASH Rhesus monkeys; [4]): 1 (5%~33%) (3×) and 0 (<5%) (2×)
NAS and liver fibrosis scores (liver biopsy) (NASH Rhesus monkeys; NASH Rhesus monkeys treated with YN-011): reduction in both NAS and liver fibrosis scores
oxidation level at position W31 [1]: not oxidized

Source: US20250376498A1, “FUSION PROTEINS COMPRISING AN IMPROVED GLP-1 RECEPTOR AGONIST AND USES THEREOF” (Guangzhou Innogen Pharmaceutical Group Co., Ltd., priority 2022, published 2025)
